Experimental data taken from publication PMC5017703, “The Neurite Outgrowth Inhibitory Nogo-A-Δ20 Region Is an Intrinsically Disordered Segment Harbouring Three Stretches with Helical Propensity” (PLoS ONE, 2016).

Columns and labels:
[1] = target: S1PR2 ECL2 peptide ECL2 (Homo sapiens) (UniProt O95136); experiment: MST; conditions: cited from earlier work
[2] = target: S1PR2 ECL3 peptide ECL3 (Homo sapiens) (UniProt O95136); experiment: MST; conditions: cited from earlier work
[3] = target: the molecule itself; experiment: pulsed field gradient NMR diffusion; Nogo-A-Δ20 at 30 μM or 560 μM, without or with TCEP (5 mM or 2 mM), pH 7.4, 6°C; diffusion coefficients compared

**Q.** With Nogo-A-Δ20 Δ20 (from UniProt Q9JK11) as the molecule, how does the Kd [1] read?
**A.** 280 nM

**Q.** What about the Kd [2] of the same molecule?
**A.** 350 nM

B1: Nogo-A-Δ20 (residues 544–725 of the rat Nogo-A sequence) (domain or fragment, UniProt Q9JK11-1 544-725, looked up)
chain: TGTKIAYETKVDLVQTSEAIQESLYPTAQLCPSFEEAEATPSPVLPDIVMEAPLNSLLPSAGASVVQPSVSPLEAPPPVSYDSIKLEPENPPPYEEAMNVALKALGTKEGIKEPESFNAAVQETEAPYISIACDLIKETKLSTEPSPDFSNYSEIAKFEKSVPEHAELVEDSSPESEPVDLF
notes: Nogo-A (reticulon 4-A), rat, 1163 residues; Nogo-A-Δ20 region, residues 544-725 (182 residues), numbered as in the rat Nogo-A protein; the T7-tag lies between the N-terminal His6-tag and Nogo-A-Δ20; The N-terminal His6-tag was removed with thrombin; also called 15N-labelled Nogo-A-Δ20; [13C, 15N]-Nogo-A-Δ20; not shown: His6, N-terminal, cleaved; T7-tag, N-terminal, kept; His6, C-terminal, kept
**Q.** Does B1 bind [3]?
**A.** binds
